Data reported in US20240218023A1, “CYCLIC PEPTIDE-N-ACETYLGALACTOSAMINE (GALNAC) CONJUGATES FOR DRUG DELIVERY TO LIVER CELLS” (MICROBIO (SHANGHAI) CO., LTD., priority 2021, published 2024).
Square brackets hold non-standard residues; d marks the D form. Side chains are listed from the residue outwards. * marks the point of attachment. Gal‑1 = GalNAc linker: 5-(GalNAc-oxy)pentanoic acid (3-acetamido-4,5-diacetoxy-6-(acetoxymethyl)tetrahydropyran-2-yl-oxy)pentanoic acid; Gal‑3 = GalNAc linker: 4-(GalNAc-oxy)butanoic acid (3-acetamido-4,5-diacetoxy-6-(acetoxymethyl)tetrahydropyran-2-yl-oxy)butanoic acid; 5FAM = O=C1OC2(c3ccc(O)cc3Oc3cc(O)ccc32)c2ccc(C(=O)*)cc21; Linker2 = 6-aminohexyl amide linker; GalNAc = N-acetylgalactosamine

Key:
HepG2 cells = assay: Cellular uptake / binding of FAM-labeled ligands to HepG2 cells (flow cytometry, proportion of FAM positive cells); assay type: cell-based, human; conditions: 24 h, HepG2
Description: The human hepatocellular carcinoma (HepG2) cell line was purchased from Shanghai Zhong Qiao Xin Zhou Biotechnology Co., Ltd. and maintained in minimum essential medium (Gibco, ThermoFisher Scientific, USA) with 10% fetal bovine serum (Gibco, ThermoFisher Scientific, USA), 200 units/mL penicillin plus 200 units/mL streptomycin at 37° C. with 5% CO2.
Cells were seeded in 24-well plates with a density of 1.5×10^5 cells per well and incubated under 37° C., 5% CO2. After 18 h of incubation, media were replaced to MEM with 2% FBS and FAM-labeled ligands were added with final concentrations of 1.6, 8, 40 or 200 nM. After 24 h of incubation, cells were washed twice with 1×PBS and analyzed by LSRFortessa (BD Biosciences, NJ, USA). The binding efficiency was evaluated by the proportion of FAM positive cells.
HepG2 cell was treated by 14 cyclic peptide-tri-GalNAc ligand variants with serial diluted concentration of 1.6, 8, 40 or 200 nM. Commercialized tri-GalNAc used in Givosirna was used as positive control and cyclic peptide w/o tri-GalNAc was negative control. […] Equilibrium dissociation constant (kd) for 5-FAM-CPMB-0013 (ID013), 5-FAM-CPMB-0023 (ID023), 5-FAM-CPMB-0035 (ID035) and commercialized tri-GalNAC were 7.0, 8.6, 5.7 and 18 nM, respectively.

[1] = Cytotoxicity, viability of HepG2 cells by Cell Counting Kit-8 (CCK-8); assay type: cell-based; conditions: human, HepG2, 1.5625-50 μM, read-out: survival ratio of cells
Description: The cytotoxicity effect of cyclic peptide-tri-GalNAc were evaluated with the viability of HepG2 cells and analyzed by Cell Counting Kit-8 (CCK-8) (Dojindo Laboratories, Japan). The assay was performed according to manufacturer's protocol. Briefly, HepG2 were seeded in 96-well plates with a density of 6×10^4 cells per well and incubated at 37° C. with 5% CO2. As cells reached 70% confluence, medium was changed to MEM with 2% FBS and serial diluted cyclic peptide-tri-GalNAc with final concentration of 50, 25, 12.5, 6.25, 3.125 and 1.5625 μM were treated. After 24 h of treatment, 10 μL of CCK-8 solution was added to each well, and incubated for 1˜4 h at 37° C. The absorbance at 450 nm was measured by microplate reader (Thermo scientific, Multiskan sky, MA, USA). The survival ratio of cells treated with ID013, ID023 and commercialized tri-GalNAC are from 97˜100%.

[2] = Stability assay in human plasma (UPLC-FLR); assay type: in vitro ADME; conditions: 90% human plasma; for stability in human plasma: within 6 h; for remaining at 72 h, 20 nM: human plasma (90%), 37° C., read-out: remaining amount after 72 h of incubation
Description: FAM-labeled tri-GalNAc ligands were prepared with sterile water with final concentration of 200 nM. […] At the end of incubations, each mixture was added 300 μl of methanol to quench the reaction. The quenched samples were centrifuged at 20,000×g for 5 min and the supernatant was further filtered with 0.45 μm filters (Merck Millipore) to remove debris. The filtered samples were measured by UPLC-FLR detector (Waters, MA, USA).
5-FAM-CPMB-0013 (ID013), 5-FAM-CPMB-0023 (ID023) and commercialized tri-GalNAC were incubated with 90% of human plasma for different time points. The amount of each ligand was analyzed and quantified by UPLC system.

[3] = target: asialoglycoprotein receptor (ASGPR) on HepG2 cells (human) (UniProt P07306); assay: flow cytometry, % FAM-positive HepG2 cells after 24 h with 8 nM ligand
[4] = target: asialoglycoprotein receptor (ASGPR) on HepG2 cells (human) (UniProt P07306); assay: flow cytometry, % FAM-positive HepG2 cells after 24 h with 40 nM ligand
[5] = target: asialoglycoprotein receptor (ASGPR) on HepG2 cells (human) (UniProt P07306); assay: flow cytometry, % FAM-positive HepG2 cells after 24 h with 1.6 nM ligand
[6] = target: asialoglycoprotein receptor (ASGPR) on HepG2 cells (human) (UniProt P07306); assay: flow cytometry, % FAM-positive HepG2 cells after 24 h with 200 nM ligand
[7] = target: asialoglycoprotein receptor (ASGPR) on HepG2 cells (human) (UniProt P07306); assay: flow cytometry titration on HepG2 cells (% FAM-positive cells, 1.6-200 nM, 24 h)
[8] = target: asialoglycoprotein receptor (ASGPR) on HepG2 cells (human) (UniProt P07306); assay: flow cytometry, % FAM-positive HepG2 cells after 24 h with 8 nM ligand; negative control
[9] = target: asialoglycoprotein receptor (ASGPR) on HepG2 cells (human) (UniProt P07306); assay: flow cytometry, % FAM-positive HepG2 cells after 24 h with 40 nM ligand; negative control
[10] = target: asialoglycoprotein receptor (ASGPR) on HepG2 cells (human) (UniProt P07306); assay: flow cytometry, % FAM-positive HepG2 cells after 24 h with 1.6 nM ligand; negative control
[11] = target: asialoglycoprotein receptor (ASGPR) on HepG2 cells (human) (UniProt P07306); assay: flow cytometry, % FAM-positive HepG2 cells after 24 h with 200 nM ligand; negative control

Chain of asialoglycoprotein receptor (ASGPR) on HepG2 cells (human) (P07306 whole entry, chain 1 of 2): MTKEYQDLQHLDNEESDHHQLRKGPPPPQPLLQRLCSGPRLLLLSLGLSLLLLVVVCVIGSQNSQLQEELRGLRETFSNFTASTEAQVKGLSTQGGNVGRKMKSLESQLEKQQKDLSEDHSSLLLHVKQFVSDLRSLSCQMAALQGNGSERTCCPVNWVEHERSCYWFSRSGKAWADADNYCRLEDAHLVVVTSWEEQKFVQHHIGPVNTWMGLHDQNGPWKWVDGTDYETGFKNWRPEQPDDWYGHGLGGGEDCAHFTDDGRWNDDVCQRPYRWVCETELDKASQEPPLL
Chain of asialoglycoprotein receptor (ASGPR) on HepG2 cells (human) (P07307 whole entry, chain 2 of 2, further chain): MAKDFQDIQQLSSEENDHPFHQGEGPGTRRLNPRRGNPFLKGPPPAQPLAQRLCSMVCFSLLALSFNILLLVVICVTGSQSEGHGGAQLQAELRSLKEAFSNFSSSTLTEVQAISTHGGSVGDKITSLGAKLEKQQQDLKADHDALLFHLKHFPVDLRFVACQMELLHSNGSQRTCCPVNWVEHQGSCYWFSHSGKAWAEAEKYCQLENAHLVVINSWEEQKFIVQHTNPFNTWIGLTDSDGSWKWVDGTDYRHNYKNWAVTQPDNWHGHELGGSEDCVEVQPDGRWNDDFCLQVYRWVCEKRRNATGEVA

5-FAM-CPMB-0014: CPS-001 cyclic peptide scaffold, Gal-4 GalNAc linker, 5-FAM label; FIG. 14D (KEKGKG; cyclised or stapled)
Efficiency (%) of cellular uptake (percentage of ligand-bound HepG2 cells) (HepG2 cells; 1.6 nM ligand): 2.3% | Efficiency (%) of cellular uptake (percentage of ligand-bound HepG2 cells) (HepG2 cells; 8 nM ligand): 24.4% | Efficiency (%) of cellular uptake (percentage of ligand-bound HepG2 cells) (HepG2 cells; 40 nM ligand): 71.0% | Efficiency (%) of cellular uptake (percentage of ligand-bound HepG2 cells) (HepG2 cells; 200 nM ligand): 96.5%

CC(=O)N[C@H]1[C@H](OCCCC(=O)NCCCC[C@H]2NC(=O)CNC(=O)[C@@H](CCCCNC(=O)CCCO[C@@H]3O[C@H](CO)[C@H](O)[C@H](O)[C@H]3NC(C)=O)NC(=O)[C@@H](CCC(=O)NCCCCCCNC(=O)c3ccc4c(c3)C(=O)OC43c4ccc(O)cc4Oc4cc(O)ccc43)NC(=O)[C@@H](CCCCNC(=O)CCCO[C@@H]3O[C@H](CO)[C@H](O)[C@H](O)[C@H]3NC(C)=O)NC(=O)CNC2=O)O[C@H](CO)[C@H](O)[C@@H]1O [5-FAM-CPMB-0023]
viability at 24 h [1]: 97 to 100% | stability in human plasma [2]: highly stable | remaining at 72 h, 20 nM [2]: 85.8%

5-FAM-CPMB-0021: CPS-002 cyclic peptide scaffold, Gal-1 GalNAc linker, 5-FAM label; FIG. 14F (KEKGKG; D-residues; cyclised or stapled)
Efficiency (%) of cellular uptake (percentage of ligand-bound HepG2 cells) (HepG2 cells; 1.6 nM ligand): 6.8% | Efficiency (%) of cellular uptake (percentage of ligand-bound HepG2 cells) (HepG2 cells; 8 nM ligand): 46.1% | Efficiency (%) of cellular uptake (percentage of ligand-bound HepG2 cells) (HepG2 cells; 40 nM ligand): 88.7% | Efficiency (%) of cellular uptake (percentage of ligand-bound HepG2 cells) (HepG2 cells; 200 nM ligand): 98.8%

5-FAM-CPMB-0031: CPS-003 cyclic peptide scaffold, Gal-1 GalNAc linker, 5-FAM label; FIG. 14I (KEKGKG; D-residues; cyclised or stapled)
Efficiency (%) of cellular uptake (percentage of ligand-bound HepG2 cells) (HepG2 cells; 1.6 nM ligand): 6.0% | Efficiency (%) of cellular uptake (percentage of ligand-bound HepG2 cells) (HepG2 cells; 8 nM ligand): 44.2% | Efficiency (%) of cellular uptake (percentage of ligand-bound HepG2 cells) (HepG2 cells; 40 nM ligand): 87.8% | Efficiency (%) of cellular uptake (percentage of ligand-bound HepG2 cells) (HepG2 cells; 200 nM ligand): 98.6%

5-FAM-CPMB-0034: CPS-003 cyclic peptide scaffold, Gal-4 GalNAc linker, 5-FAM label; FIG. 14K (KEKGKG; D-residues; cyclised or stapled)
Efficiency (%) of cellular uptake (percentage of ligand-bound HepG2 cells) (HepG2 cells; 1.6 nM ligand): 2.0% | Efficiency (%) of cellular uptake (percentage of ligand-bound HepG2 cells) (HepG2 cells; 8 nM ligand): 25.6% | Efficiency (%) of cellular uptake (percentage of ligand-bound HepG2 cells) (HepG2 cells; 40 nM ligand): 73.6% | Efficiency (%) of cellular uptake (percentage of ligand-bound HepG2 cells) (HepG2 cells; 200 nM ligand): 95.6%

CC(=O)N[C@H]1[C@H](OCCCC(=O)NCCCC[C@@H]2NC(=O)CNC(=O)[C@H](CCCCNC(=O)CCCO[C@@H]3O[C@H](CO)[C@H](O)[C@H](O)[C@H]3NC(C)=O)NC(=O)[C@H](CCC(=O)NCCCCCCNC(=O)c3ccc4c(c3)C(=O)OC43c4ccc(O)cc4Oc4cc(O)ccc43)NC(=O)[C@H](CCCCNC(=O)CCCO[C@@H]3O[C@H](CO)[C@H](O)[C@H](O)[C@H]3NC(C)=O)NC(=O)CNC2=O)O[C@H](CO)[C@H](O)[C@@H]1O [5-FAM-CPMB-0013]
viability at 24 h [1]: 97 to 100% | stability in human plasma [2]: highly stable | remaining at 72 h, 20 nM [2]: 92.7%

cyclo([dK]([Gal‑1-GalNAc])[dE]([Linker2-5FAM])[dK]([Gal‑1-GalNAc])G[dK]([Gal‑1-GalNAc])G) [5-FAM-CPMB-0021]
Efficiency (%) (proportion of FAM positive cells) [3]: 46.1% | Efficiency (%) (proportion of FAM positive cells) [4]: 88.7% | Efficiency (%) (proportion of FAM positive cells) [5]: 6.8% | Efficiency (%) (proportion of FAM positive cells) [6]: 98.8%

cyclo([dK]([Gal‑3-GalNAc])[dE]([Linker2-5FAM])[dK]([Gal‑3-GalNAc])G[dK]([Gal‑3-GalNAc])G) [5-FAM-CPMB-0023]
Efficiency (%) (proportion of FAM positive cells) [3]: 47.2% | Efficiency (%) (proportion of FAM positive cells) [4]: 91.2% | Efficiency (%) (proportion of FAM positive cells) [5]: 6.2% | Efficiency (%) (proportion of FAM positive cells) [6]: 99.2% | Kd [7]: 8.6 nM

B1: 5-FAM-CPMB-0025 (peptide)
peptide: KEKGKG
modifications: head-to-tail cyclic; D-Lys at the three Lys positions and D-Glu; each D-Lys side chain carries GalNAc via linker Gal-5; D-Glu side chain carries Linker2 with 5-FAM
Efficiency (%) (proportion of FAM positive cells) [3]: 30% | Efficiency (%) (proportion of FAM positive cells) [4]: 83.1% | Efficiency (%) (proportion of FAM positive cells) [5]: 1.6% | Efficiency (%) (proportion of FAM positive cells) [6]: 98.2%

cyclo(K([Gal‑1-GalNAc])[dE]([Linker2-5FAM])K([Gal‑1-GalNAc])GK([Gal‑1-GalNAc])G) [5-FAM-CPMB-0031]
Efficiency (%) (proportion of FAM positive cells) [3]: 44.2% | Efficiency (%) (proportion of FAM positive cells) [4]: 87.8% | Efficiency (%) (proportion of FAM positive cells) [5]: 6% | Efficiency (%) (proportion of FAM positive cells) [6]: 98.6%

cyclo(K([Gal‑3-GalNAc])[dE]([Linker2-5FAM])K([Gal‑3-GalNAc])GK([Gal‑3-GalNAc])G) [5-FAM-CPMB-0033]
Efficiency (%) (proportion of FAM positive cells) [3]: 34.5% | Efficiency (%) (proportion of FAM positive cells) [4]: 82.9% | Efficiency (%) (proportion of FAM positive cells) [5]: 5.3% | Efficiency (%) (proportion of FAM positive cells) [6]: 98.2%

B2: 5-FAM-CPMB-0034 (peptide)
peptide: KEKGKG
modifications: head-to-tail cyclic; D-Glu; each Lys side chain carries GalNAc via linker Gal-4; D-Glu side chain carries Linker2 with 5-FAM
Efficiency (%) (proportion of FAM positive cells) [3]: 25.6% | Efficiency (%) (proportion of FAM positive cells) [4]: 73.6% | Efficiency (%) (proportion of FAM positive cells) [5]: 2% | Efficiency (%) (proportion of FAM positive cells) [6]: 95.6%

B3: 5-FAM-CPMB-0035 (peptide)
peptide: KEKGKG
modifications: head-to-tail cyclic; D-Glu; each Lys side chain carries GalNAc via linker Gal-5; D-Glu side chain carries Linker2 with 5-FAM
Efficiency (%) (proportion of FAM positive cells) [3]: 63.2% | Efficiency (%) (proportion of FAM positive cells) [4]: 95.2% | Efficiency (%) (proportion of FAM positive cells) [5]: 11.1% | Efficiency (%) (proportion of FAM positive cells) [6]: 99.5% | Kd [7]: 5.7 nM

B4: 5-FAM-CPMB-0031-Ac (negative control) (peptide)
peptide: cyclo(K[dE]([Linker2-5FAM])KGKG)
modifications: also: Lys side chains: Gal-1 with suffix -Ac per table, 'w/o tri-GalNAc' per text
Efficiency (%) (proportion of FAM positive cells) [8]: 0.1% | Efficiency (%) (proportion of FAM positive cells) [9]: 0.2% | Efficiency (%) (proportion of FAM positive cells) [10]: 0.1% | Efficiency (%) (proportion of FAM positive cells) [11]: 0.4%
